{"source": "the nanobody polyreactivity screen of Harvey et al. (2022)"}
{"experiment": "yeast display, Sf9 membrane polyspecificity reagent, FACS + sequencing; frameworks hold sequencing errors", "how_it_was_run": "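Genes from sorted yeast were amplified by colony PCR, read by MiSeq 2 × 250 sequencing and filtered on CDR length. These cells carried a synthetic nanobody library in Saccharomyces cerevisiae BJ5465 and were sorted by FACS into low and high (top ~1%) gates on anti-HA and streptavidin fluorescence. Polyreactivity is labelled according to the gate of origin.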"}
{"sequence": "QVQLVESGGGLVQAGCSLRLSCAASGSTFRPYAMGWYRQAPGKERELVAAINNSGGSTYYADSVKGRFTISRDNAKNTVYLQMNSLKPEDTAVYYCAAEWYYYFIIMNYWGQGTQVTVSS", "polyreactivity (PSR sort gate)": "high polyreactivity"}
{"sequence": "QVQLVESGGGLVQAGGSLRLSCAASGIIFGFNTMGWYRQAPGKERELVAAINGSDGSTYADSVKGRFTISRDNAKNTVYLLMNSLKPEDTAVYYCAARYGSRKEYTYADMDYWGQGTQVTVSS", "polyreactivity (PSR sort gate)": "low polyreactivity"}
{"sequence": "QVQLQESGGALVQAGGSLRLSCAASGYISAGRQMGWYRQAPGKELEFVATINGGATTNYADSVKGRFTISRDNAKNSVYLQMNSLKPEDTAVYYCAAVIWYVQDYTYWGQGAQVTVSS", "polyreactivity (PSR sort gate)": "high polyreactivity"}
{"sequence": "KVHLVDSGGRLVQAGGSLRLSCSASGSIFYVYAMGWYRQAPGTERELVATISSSAGSTYYAYSVKGRFTISRDNAKNTVNLQMYSLNPVDTAVYYCYADSFLSWVYRYVYYVSGLWGQGTQVTVSS", "polyreactivity (PSR sort gate)": "low polyreactivity"}
{"sequence": "QVQLVESGGGLVQAGGSLRLSCAASGNTFYVNVMGWYRHAPGKEREFVAAISTRGVSTSYADSVKGRFTISRDYAKNTVYLQMNRLKPEDTAVYYCAKRFLPPGRAVTYDYWGQGTQVTVSS", "polyreactivity (PSR sort gate)": "high polyreactivity"}
{"sequence": "QVHLVESGGGLVQAGGSLRLSCAASGFTFFYYAMGWYRPAPGKERELVAAINSGDNTNYADSVKGRFTISRDNAKNTVYLLMNSLIPEDTAVYYCAAQDYARGVVPGRRAMGYWGQGTQVSVSS", "polyreactivity (PSR sort gate)": "high polyreactivity"}
{"sequence": "QVQLVESGGGLFQAGGSLRLSCAASATTFGVNAMGLYRQATGKERELVAAITVSAGSTYYADSVKGRFTISRDNAQNTVYLQMNSMKPEDSAVYYCAAEEREWRTDIYDYWGQGTQVTVSS", "polyreactivity (PSR sort gate)": "low polyreactivity"}
{"sequence": "QVQLEESGGGLVQAGGSLRLSCAASVSIFFVNAMGWYRQAPGKERELVASISRDGSTNYADSVKGRFTISRDNAKNTVYLQMNSLKPEVTAVYYCNGLSADWYPEEDYWGQGTQVTVSS", "polyreactivity (PSR sort gate)": "low polyreactivity"}
{"sequence": "QVQLVESGGGLVQAGGSLRLTCAASGRTFRNYAMGWYRQAPGKEREMVAAISRSGGITYYADSVKGRFTISRDNAKNTVYLQMNSLKPEDTAVYYCAARHSYQGPGTYPMYYWGQGTQVTVTS", "polyreactivity (PSR sort gate)": "high polyreactivity"}
{"sequence": "QVQLVESRGGLVQAGGRLRLSCAASGIIFPRNAMGWYRQAPGKERELVAAITNTGSTKYADSVKGRFTISRDNEKNTVYLHMNSLKPEDTAVYFCAKELCSVPSPSLYDYWGQGTQVTVSS", "polyreactivity (PSR sort gate)": "low polyreactivity"}
{"sequence": "QVQLVESGGGLVQAGASLRLICAASGYTSSGYAMGRYRHAPGKERELVAAISADGGSTYYADSVKGRFTISRDNAKNTVYLQMNSLKPEDTAVYYCAKYTYPYTPYSWWYDYWGQGTQVTVSS", "polyreactivity (PSR sort gate)": "low polyreactivity"}
{"sequence": "QVQLVESAGGLVQAGGSLSLSCAASGSIFWSYAMGWYRQAPGKERELVAVINWSGGSTYYADSVKGRFTISRDNAKNTVYLQMNSLKPEDTAVYYCNKDLGPTKRPFTFDYWGQGTQVTVSS", "polyreactivity (PSR sort gate)": "low polyreactivity"}
{"sequence": "QVQLVESGGGLVQAGGSLSLSCAASGSTFVYNAMGWYRKAPGKERELVAAISSGGSTNYADSVKGRFTISRDNAKNTVYFQMKSLKPEDNRSEYSRYVVYDYWGQGTQVTVSS", "polyreactivity (PSR sort gate)": "low polyreactivity"}
{"sequence": "QVQLVESGGGLVQAGGSLRLSFAACGSIFTVYTMGWYRQAPGKERELVAAINSRGGTTYYADSVKGRFTISRDTAKNTVYLQMNSLKPEDTAVYYCAADWGYKDFGYWGQGTQVTVSS", "polyreactivity (PSR sort gate)": "high polyreactivity"}
{"sequence": "QVQRVESAGCLVQAGVSLRLSCPPSRRIFSRYAIGWYRQAPGKERELVAAISWSGGSTYYADSVKGRFTISRDNAMNTVYLQLIILKPEDTAVYYCAARRSYSYGSWGQGTQVTVSS", "polyreactivity (PSR sort gate)": "high polyreactivity"}
{"sequence": "QGQLVESGGGLVQAGGSLRLSCAASGFIFSKYAMGWYRQAPGKERELVAAISYRTVRTYYADSVKGRFTISRDNAKNTVDLQMNSLKPEDTAVYYCAADSRYWLYDYWGQGTQVTVSS", "polyreactivity (PSR sort gate)": "high polyreactivity"}
{"sequence": "QVQLVESGGGLVQAGGSLRLSCAASGSTFLRYAMGWYRQAPGKERELVAAISLSGGRTHYADSVKGRFTISRDNAKNTVYLQMNSLKPEDTAVYYCAARNTGPVQYYYWGQGTQVTVSS", "polyreactivity (PSR sort gate)": "low polyreactivity"}
{"sequence": "QVQLVESVGGLGQAGGSLRLSCAASGSIFVLNARGWSRQAPGKERELVAGITYSGGSTYYADSVKGRFTISRDNATNTVYLQMNSLKPEDTAVYSCAAPVRRYPYPGRFYYWGQGTQVTVSS", "polyreactivity (PSR sort gate)": "low polyreactivity"}
{"sequence": "QVQLVESGGGLVQAGGSLRLSCAASGFIFGYYVMGWSRQAPGKERELVAAISGSGGRTYYADSVKGRFTISRDNAKNTVYLQMNSLKPEDTAVYYCNAVAFYRDYNYWGQGTQVTVSS", "polyreactivity (PSR sort gate)": "high polyreactivity"}
{"sequence": "QVQLVESGGGLVQAGGSLRLSCAASGFTFPYYAMGWYRQAPGKERELVAAITSSGGSTYYADSVKGRFTISRDNAKNTVYLQMNSLKPEDTAVYYCAVDAYYYKWYDYWGQGTQVTVSS", "polyreactivity (PSR sort gate)": "high polyreactivity"}
{"sequence": "QVQLVETGGGLVQAGGTLRLSCADSGSIYEDNAKGWYRQAPGKERELDAAITWSGDSTYYADSVKGRFTISRDTEKNTVYLQMNSLKPEDTAVYYCNTYRIFCYSRYYAGYDYWGQGTQVTVSS", "polyreactivity (PSR sort gate)": "low polyreactivity"}
{"sequence": "QVQLVESGGGLVQAGGSLRLSCAASGRNFYRYAMGRYREAPGKERELVAAIRYSGGRTYYADSVKGRFTISRDNAKNTFYLQMNSLKPEDTAVYYCASDGQWYYAPFRGGDYENDYWGQGTQVTLSS", "polyreactivity (PSR sort gate)": "low polyreactivity"}
{"sequence": "QVQLVESGGGLVQAGGSLRLSCAASGFIFPPYDMGWYRQAPGKERELVADITYSDGITYYADSVKGRFTISRDNAMNTVYLQMNSLKPEDTAVYYCNADYSRIGPEVDYWGQGTQVTVSS", "polyreactivity (PSR sort gate)": "low polyreactivity"}
{"sequence": "QVQLVESGGGLVQAGGSLRLSCAASGITLYRNVMGWYRQAPGKERELVADISGRGTSTYYADSVKGRFTISRDNAKNTVYLQIHSLKPEDNAVYYCKGEVYLVVYPGLYYYDIYDYWGQGTQVTVSS", "polyreactivity (PSR sort gate)": "low polyreactivity"}
{"sequence": "QVQIVESGGGLVQAGGSLRLSCAASGFTIDQYAMGWYRQAPGKERELVAAISWRGGSTYYADSVKGRFTISRDNAKNTVYLQMNSLKPEDTAVYYCNGYSPYHAGVDYGYWGQGTQVTVSS", "polyreactivity (PSR sort gate)": "high polyreactivity"}
{"sequence": "QVQLVESGGGLVQAGGSLRLSCAASGGIFYDYAMGWYRQAPGKERELVAAISQSGGSTYYADSVKGRFTISRDNAKNTVYLQMNSLKPEDTAVYYCAADYLDSTYGYVYGWDDSWGQGTQVTVSS", "polyreactivity (PSR sort gate)": "low polyreactivity"}
{"sequence": "QVQLVESGGGLVQAGGSLRLSCAASGSIFSRYAMGWYRQAPGKERELVAAISWRGGSTYYADSVKGRFTISRDNAKNTVYLQMTSLKPEDTAVYYCAAVYRGGPYYYWGQGTQVTVSS", "polyreactivity (PSR sort gate)": "high polyreactivity"}
{"sequence": "QVQLVESGGGLVQAGGSLRLSCAASGRIFRYYAMGWYRQAPGKERELDAAISRSGGSTYYADSVKGRFTISRDNAKNTVYLQMNSLKPEDTAVYYCAARVYRYGAMDYWGQGTQVTVSS", "polyreactivity (PSR sort gate)": "high polyreactivity"}
{"sequence": "QVQLGESGGGLVQAGRSLRLSCAASGSTIGPDAMGWYRQAPGTERELVAAIRYSSVRTYYADSVKGRFTISRDNAKNSVYVQMNSLKPEDTAVYYCNAVFWSYTVWGRSDYWGQGTQVTVSS", "polyreactivity (PSR sort gate)": "low polyreactivity"}
{"sequence": "QVQLVESGGGLVQAGGSLRLSCAASGRTFPPYAMGWYRQAPGKERELVAANSWSGGSTYYADSVKGRFTISRDNAKNTVYLQMNSLKPEDTAVYYCAKATRDRGRYYYWGQGTQVTVSS", "polyreactivity (PSR sort gate)": "high polyreactivity"}
{"sequence": "QVQIVESGAGLVQPGGSLRLSCAASGRTFPLYAMGWYRPAPGKEREFVAAITVSGVSTSYADSVKGRFTISRDNAKNTVYLQMNSLKPEDTAVYYCAADYYIWTYWDVYYWGQGTQVTVSS", "polyreactivity (PSR sort gate)": "high polyreactivity"}
{"sequence": "QVQLVESGGGLLQAGGSLRLSCAASGRTFATYAMGWYRQAPGKERELVAAITSGGSTNYADSVKGRFTISRDNAKNTVYLQMNSLKPEDTAVYYCNAYKTNRGSGPWYTGRYDYWGQGTQVTVSS", "polyreactivity (PSR sort gate)": "low polyreactivity"}
{"sequence": "QVQLVESGGGLVQAGGSLRLSCAASGITFPENDMGWYIKAPGKEREFDADITSSGGNTYYADSVKGRFTISRDNAKNTVYLHMNSLKPEDSAVYYCNADDGYFYVYQGWYDEMDYWGQGTQVTVSS", "polyreactivity (PSR sort gate)": "high polyreactivity"}
{"sequence": "QVQLVESGGGLVQAGGSLRLSCAASGFTFGYYAMGWYRQAPGKERELVAAISSSGGRTYYADSVKGRFTISRDNAKNTVYLQMNSMKPEDTAVYYCAAVYIRYPIQYSLLRYDYWGQGTQVTVSA", "polyreactivity (PSR sort gate)": "high polyreactivity"}
{"sequence": "QVQLVESGGGLVQAGGSLRLSCAASGRIFYRYAMGWYRQAPGKERELVAAITIGGRTNYADSVKGRFTISRDNAKNTVYLQMNSLKPEDTAVYYCAVVLYTRYPPRVRYYYWGQGTQVTVSS", "polyreactivity (PSR sort gate)": "high polyreactivity"}
{"sequence": "QVQLVESGGGLVQAGGSLRLSCAASGSTYYLYAMGWYRQAPGKERELVAVITWSDGSTYYADSVKGRFTISRDNAKNTVYFQMNSLKPEDTAVSYCAKDLDSGGRGYYWGQGTQVTVSS", "polyreactivity (PSR sort gate)": "low polyreactivity"}
{"sequence": "QVQLVESGGGLVQAGGSLRLSCAASGSTFNHNAMGWYRQAPGKERELVAAITSGTSTYYADSVKGRFTISRDNAKNTVYLQMNSLKPEDTAVYYCAADSPWGGGYFVLYNYWGQGTQVTVSS", "polyreactivity (PSR sort gate)": "low polyreactivity"}
{"sequence": "QVQLVESGGGLVQAGGSLRLSCAASGSTFDYNTMGWYRQAPGKERELVAGIRSSGARTYYADSVKGRFTISRDNAKNTVYLQMNSLKPEDTAVYYCAKTDGFYRGYGYWGQGTQVTVSS", "polyreactivity (PSR sort gate)": "low polyreactivity"}
{"sequence": "QVQLVESGGGLVQAGGSLRLSCAASGSTFIWNAMGWYRQAPRKERELVATITYSGGSTYYADSVKGRFTISRDNAKNTVYLQMNSLKPEDTAVYYCATDATIPKCYTYPGEMDYWGQGTQVTVSS", "polyreactivity (PSR sort gate)": "low polyreactivity"}
{"sequence": "QVQLLESGGALVQAAGSLRLSCAASGYTIGRYAIGWYRHAPGKDRELVAAITWSGGSTYYADSVKGRFTISRDNAKNTVYLQMNSLKPEDTAVYYCAKRYRYYSYGPYGMYYWGQGTQVSVSS", "polyreactivity (PSR sort gate)": "high polyreactivity"}
{"sequence": "QVHLVESGGGLVQAGGSLRLSCAASGITIYVYAMGWYRQAPGKEREFVAAINGRGGSPYYADSVKGRFTISRDNAKNTVYLQMNSLKPEDTAVFYCAAESLAIYYKYPPYDYWGQGSQVTVSS", "polyreactivity (PSR sort gate)": "high polyreactivity"}
{"sequence": "QVQLVESGGGLVQAGGSLRLSCAASGSTFRFYAMGWYRQAPGKERELVAAISSRAGSTYYADSVKGRFTISRDNAKNTVYLQMNSLKPEDTAVYYCNARTYSYRGYNYWGQGTQVTVSS", "polyreactivity (PSR sort gate)": "high polyreactivity"}
{"sequence": "QVQLVESGGGLVQAGGSLRLSCAASGITLLYYAMGWYRQAPGKERELVAAISRRGGSTYYADSVKGRFTISRDNAKNTVYLQMNSLKPEDTAVYYCAAYSPYGGYHYLYDYWGQGTEVTVSS", "polyreactivity (PSR sort gate)": "high polyreactivity"}
